Results published in patent publication US20210145976A1.

target: human serum albumin (human) (UniProt P02768); test: screening ELISA
Sequence (P02768 25-609 limits assumed): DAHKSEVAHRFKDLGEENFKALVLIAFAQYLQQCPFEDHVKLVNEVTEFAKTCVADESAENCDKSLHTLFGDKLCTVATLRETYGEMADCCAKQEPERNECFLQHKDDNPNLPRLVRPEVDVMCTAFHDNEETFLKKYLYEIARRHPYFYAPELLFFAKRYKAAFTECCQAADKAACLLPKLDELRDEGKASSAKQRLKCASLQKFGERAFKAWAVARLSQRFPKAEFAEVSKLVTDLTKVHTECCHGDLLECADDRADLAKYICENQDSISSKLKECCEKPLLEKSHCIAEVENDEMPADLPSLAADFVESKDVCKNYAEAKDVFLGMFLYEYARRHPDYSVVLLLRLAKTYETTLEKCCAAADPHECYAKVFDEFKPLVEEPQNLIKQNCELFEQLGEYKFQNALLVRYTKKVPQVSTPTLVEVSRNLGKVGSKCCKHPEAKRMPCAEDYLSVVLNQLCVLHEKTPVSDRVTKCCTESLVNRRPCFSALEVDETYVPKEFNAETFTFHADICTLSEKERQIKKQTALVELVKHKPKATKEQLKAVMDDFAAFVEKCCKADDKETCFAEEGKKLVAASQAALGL

Binder | HSA
SEQ ID NO 90 (designed binder) MLPAPKNLVVSRVTEDSARLSWTAPDAAFDSFTIHYWEFDPPGEAIVLTVPGSERSYDLTGLKPGTEYTVYIEGVKGGWWSKPLSAIFTT | 2550
SEQ ID NO 91 (designed binder) MLPAPKNLVVSRVTEDSARLSWTAPDAAFDSFVIEYWERTQPGEAIVLTVPGSERSYDLTGLKPGTEYDVWISGVKGGKWSEPLSAIFTT | 1800
SEQ ID NO 98 (designed binder) MLPAPKNLVVSRITEDSARLSWTAPDAAFDSFDIPYGEFDTIGEAIVLTVPGSERSYDLTGLKPGTEYDVYIEGVKGGHLSWPLSAIFTT | 15500
SEQ ID NO 85 (designed binder) MLPAPKNLVVSRVTEDSARLSWTAPDAAFDSFFIWYWEKSVDGEAIVLTVPGSERSYDLTGLKPGTEYNVGIQGVKGGTPSDPLSAIFTT | 2500
SEQ ID NO 100 (designed binder) MLPAPKNLVVSRVTEDSARLSWTAPDAAFDSFWIEYWEVVGFGEAIVLTVPGSERSYDLTGLKPGTEYWVGIYGVKGGNPSVPLSAIFTT | 2350
SEQ ID NO 86 (designed binder) MLPAPKNLVVSRVTEDSARLSWTAPDAAFDSFIIWYAEWVNDGEAIVLTVPGSERSYDLTGLKPGTEYRVEITGVKGGTWSRPLSAIFTT | 2250
SEQ ID NO 102 (designed binder) MLPAPKNLVVSRVTEDSARLSWTAPDAAFDSFSIDYDEPQPVGEAIVLTVPGSERSYDLTGLKPGTEYRVDIWGVKGGPTSGPLRATFTT | 13400
SEQ ID NO 99 (designed binder) MLPAPKNLVVSRVTEDSARLSWTAPDAAFDSFGIQYNEFVFRGEAIVLTVPGSERSYDLTGLKPGTEYFVPISGVKGGDDSRPLSAIFTT | 8150
SEQ ID NO 107 (designed binder) MLPAPKNLVVSRVTEDSARLSWTAPDAAFDSFFIQYTESHWVGEAIVLTVPGSERSYDLTGLKPGTEYAVPIEGVKGGDSSTPLSAIFTT | 4050
SEQ ID NO 36 (designed binder) MLPAPKNLVVSRVTEDSARLSWTAPDAAFDSFTITYIEWWENGEAIALSVPGSERSYDLTGLKPGTEYQVGIAGVKGGYKSYPLWALFTT | 6160
SEQ ID NO 101 (designed binder) MLPAPKNLVVSRVTEDSARLSWTAPDAAFDSFAIDYDEPINSGEAIVLTVPGSERSYDLTGPKPGTEYEVEIYGVKGGYLSRPLSAIFTT | 9100
SEQ ID NO 106 (designed binder) MLPAPKNLVVSRVTEDSARLSWTAPDAAFDSFTIAYEEHGLVGEAIYLRVPGSERSYDLTGLKPGTEYHVGIMGVKGGVFSSPLSAIFTT | 1200
SEQ ID NO 109 (designed binder) MLPAPKNLVVSRVTEDSARLSWTAPDAAFDSFHIAYEELVTEGEAIYLRVPGSERSYDLTGLKPGTEYLVDIEGVKGGHLSSPLSAIFTT | 1250
SEQ ID NO 93 (designed binder) MLPAPKNLVVSRVTEDSARLSWTAPDAAFDSFYIGYLEPGDNGEAIVLTVPGSERSYDLTGLKPGTEYNVSIGGVKGGLGSYPLSAIFTT | 1650
SEQ ID NO 115 (designed binder) MLPAPKNLVVSRVTEDSARLSWTAPDAAFDSFFIGYLEPQPPGEAIVLTVPGSERSYDLTGLKPGTEYNVTIQGVKGGFPSMPLSAIFTTT | 3450
SEQ ID NO 35 (designed binder) MLPAPKNLVVSRVTEDSARLSWTAPDAAFDSFEIAYFEAIWNGEAIYLTVPGSERSYDLTGLKPGTEYQVEIRGVKGGPTSRPLFAWFTT | 1520
SEQ ID NO 97 (designed binder) MLPAPKNLVVSRVTEDSARLSWTAPDAAFDSFFISYFEGWASGEAIHLYVPGSERSYDLTGLKPGTEYSVHIQGVKGGQPSTPLSAIFTT | 2200
SEQ ID NO 110 (designed binder) MLPAPKNLVVSRVTEDSARLSWTAPDAAFDSFFIHYHEWWEAGEAIVLTVPGSERSYDLTGLKPGTEYLVDIPGVKGGDLSVPLSAIFTT | 18800
SEQ ID NO 88 (designed binder) MLPAPKNLVVSRVTEDSARLSWTAPDAAFDSFWIEYFEWTVGGEAIVLTVPGSERSYDLTGLKPGTEYYVSIYGVKGGWLSPPLSAIFTT | 6000
SEQ ID NO 104 (designed binder) MLPAPKNLVVSHVTEDSARLSWTAPDAAFDSFDIEYYELVGSGEAIVLTVPGSERSYDLTGLKPGTEYYVAIYGVKGGYLSRPLSAIFTT | 1700
SEQ ID NO 114 (designed binder) MLPAPKNLVVSRVTEDSARLSWTAPDAAFDSFAIEYWEAVGSGEAIVLTVPGSERSYDLTGLKPGTEYHVYIYGVKGGYLSLPLSAIFTT | 4200
SEQ ID NO 103 (designed binder) MLLAPKNLVVSRVTEDSARLSWTAPDAAFDSFAIEYFEYTGEGEAIVLTVPGSERSYDLTGLKPGTEYYVGIYGVKGGYLSRPLSAIFTT | 1200
SEQ ID NO 105 (designed binder) MLPAPKNLVVSRVTEDSARLSWTAPDAAFDSFGIAYYERSGAGEAIVLTVPGSERSYDLTGLKPGTEYMVYINGVKGGFVSSPLSAIFTT | 1400
SEQ ID NO 37 (designed binder) MLPAPKNLVVSRVTEDSARLSWTAPDAAFDSFHIIYTEEEKEGEAIYLRVPGSERSYDLTGLKPGTEYLVEIEGVKGGKRSVPLNASFTT | 2720
SEQ ID NO 95 (designed binder) MLPAPKNLVVSRVTEDSARLSWTAPDAAFDSFRISYYEWYDLGEAIVLTVPGSERSYDLTGLKPGTEYWVDIAGVKGGYYSYPLSAIFTT | 1900
SEQ ID NO 111 (designed binder) MLPAPKNLVVSRVTEDSARLSWTAPDAAFDSFWIYYYESVGTGEAIVLTVPGSERSYDLTGLKPGTEYFVDISGVKVGTYSLPLSAIFTT | 7450
SEQ ID NO 94 (designed binder) MLPAPKNLVVSRITEDSARLSWTAPDAAFDSFGIYYYEWWSTGEAIVLTVPGSERSYDLTGPKPGTEYYVKISGVKGGYRSYPLSAIFTT | 9900
SEQ ID NO 113 (designed binder) MLPAPKNLVVSRVTEDSARLSWTAPDAAFDSFDIHYKEHSWWGEAIVLTVPGSERSYDLTGLKPGTEYIVPIPGVKGGGISRPLSAIFTT | 22600
SEQ ID NO 84 (designed binder) MLPAPKNLVVSRVTEDSARLSWTAPDAAFDSFPIYYWEVFPAGEAIELDVPGSERSYDLTGLKPGTEYFVRIEGVKGGASSYPLRAEFTT | 3850
